Assay results published in PMC8322077, “Antibody toolkit reveals N-terminally ubiquitinated substrates of UBE2W” (Nature Communications, 2021).

Molecular target: T1, biotinylated ubiquitin (UniProt P0CG48 1-76, biotin)
T1 construct: ubiquitin (monoubiquitin); also called biotin-Ub; monoubiquitin; source: bought: Boston Biochem (Cat# UB-570)
Experiment: BLI; Octet Red384; biotinylated ubiquitin immobilised on streptavidin biosensors; analyte fourfold dilutions starting at 5 μM; 25 °C; 150 mM NaCl, 20 mM Tris 7.5, 1 mg/mL BSA, 0.01% Tween-20, 1 mM TCEP; association 180 s, dissociation 300 s
Conditions: both partners purified

binding result: binds
B1: UCHL5^WT (enzyme, UniProt Q9Y5K5 1-329, looked up)
chain: MTGNAGEWCLMESDPGVFTELIKGFGCRGAQVEEIWSLEPENFEKLKPVHGLIFLFKWQPGEEPAGSVVQDSRLDTIFFAKQVINNACATQAIVSVLLNCTHQDVHLGETLSEFKEFSQSFDAAMKGLALSNSDVIRQVHNSFARQQMFEFDTKTSAKEEDAFHFVSYVPVNGRLYELDGLREGPIDLGACNQDDWISAVRPVIEKRIQKYSEGEIRFNLMAIVSDRKMIYEQKIAELQRQLAEEEPMDTDQGNSMLSAIQSEVAKNQMLIEEEVQKLKRYKIENIRRKHNYLPFIMELLKTLAEHQQLIPLVEKAKEKQNAKKAQETK
notes: ubiquitin C-terminal hydrolase L5 (UCHL5), full-length wild type; also called UCH37; source: E. coli BL21-Gold(DE3), purified (Ni-NTA, SEC)
